Test results as given in paper PMC8543371 (Nature microbiology, 2021).

B1: AZD8895 P99V (heavy chain) (antibody, V domains shown)
VH: QMQLVQSGPEVKKPGTSVKVSCKASGFTFMSSAVQWVRQARGQRLEWIGWIVIGSGNTNYAQKFQERVTITRDMSTSTAYMELSSLRSEDTAVYYCAAVYCSSISCNDGFDIWGQGTMVTVSS
VL: not shown
B2: AZD8895 D108A (heavy chain) (antibody, V domains shown)
VH: QMQLVQSGPEVKKPGTSVKVSCKASGFTFMSSAVQWVRQARGQRLEWIGWIVIGSGNTNYAQKFQERVTITRDMSTSTAYMELSSLRSEDTAVYYCAAPYCSSISCNAGFDIWGQGTMVTVSS
VL: not shown
B3: AZD8895 P99N (heavy chain) (antibody, V domains shown)
VH: QMQLVQSGPEVKKPGTSVKVSCKASGFTFMSSAVQWVRQARGQRLEWIGWIVIGSGNTNYAQKFQERVTITRDMSTSTAYMELSSLRSEDTAVYYCAANYCSSISCNDGFDIWGQGTMVTVSS
VL: not shown
B4: AZD8895 D108E (heavy chain) (antibody, V domains shown)
VH: QMQLVQSGPEVKKPGTSVKVSCKASGFTFMSSAVQWVRQARGQRLEWIGWIVIGSGNTNYAQKFQERVTITRDMSTSTAYMELSSLRSEDTAVYYCAAPYCSSISCNEGFDIWGQGTMVTVSS
VL: not shown
B5: AZD8895 D108N (heavy chain) (antibody, V domains shown)
VH: QMQLVQSGPEVKKPGTSVKVSCKASGFTFMSSAVQWVRQARGQRLEWIGWIVIGSGNTNYAQKFQERVTITRDMSTSTAYMELSSLRSEDTAVYYCAAPYCSSISCNNGFDIWGQGTMVTVSS
VL: not shown

Target: recombinant SARS-CoV-2 S 6P protein (SARS-CoV-2, Wuhan-Hu-1 reference …, UniProt P0DTC2, stabilised)
Assay: ELISA

Q: Does B1 bind?
A: binds

Q: Does B2 bind?
A: binds

Q: Does B3 bind?
A: binds

Q: Does B4 bind?
A: binds

Q: Does B5 bind?
A: binds
